# B1: Hunk (Hormonally Up-regulated, Neu-Tumor-Associated Kinase), mouse, 714-amino-acid ~80-kDa polypeptide (protein)
# chain: MPAAAGDGLLGEPAAPGGDGGAEDTTRPAAACEGSFLPAWVSGVSRERLRDFQHHKRVGNYLIGSRKLGEGSFAKVREGLHVLTGEKVAIKVIDKKRAKKDTYVTKNLRREGQIQQMIRHPNITQLLDILETENSYYLVMELCPGGNLMHKIYEKKRLDEAEARRYIRQLISAVEHLHRAGVVHRDLKIENLLLDEDNNIKLIDFGLSNCAGILGYSDPFSTQCGSPAYAAPELLARKKYGPKIDVWSIGVNMYAMLTGTLPFTVEPFSLRALYQKMVDKAMNPLPTQLSTGAVNFLRSLLEPDPVKRPNIQQALANRWLNENYTGKVPCNVTYPNRISLEDLSPSVVLHMTEKLGYKNSDVINTVLSNRACHILAIYFLLNKKLERYLSGKSDIQDSICYKTQLYQIEKCRATKEPYEASLDTWTRDFEFHAVQDKKPKEQEKRGDFLHRPFSKKLDKNLPSHKQPSPSLITQLQSTKALLKDRKASKSGFPDKDSFVCRNLFRKTSDSNCVASSSMEFIPVPPPRTPRIVKKLEPHQPGPGSASILPKEEPLLLDMVRSFESVDREDHIELLSPSHHYRILSSPVSLARRNSSERTLSQGLLSGSTSPLQTPLHSTLVSFAHEEKNSPPKEEGVCSPPPVPSNGLLQPLGSPNCVKSRGRFPMMGIGQMLRKRHQSLQPSSERSLDASMSPLQPIAPSSLSFDMADGVKGQC
protein,measurement,setting,value
B1,in vitro kinase assay of Hunk immunoprecipitates with [gamma-32P]ATP,myelin basic protein,Hunk immunoprecipitates were able to phosphorylate both histone H1 and MBP in vitro
same,in vitro kinase assay of Hunk immunoprecipitates with [gamma-32P]ATP,histone H1,Hunk immunoprecipitates were able to phosphorylate both histone H1 and MBP in vitro
same,in vitro kinase assay of anti-Hunk immunoprecipitates with gamma-32P-ATP and histone H1,histone H1,Hunk-associated kinase activity was substantially greater in immunoprecipitates prepared from transgenic when compared with wild type mammary glands

# — patent publication US20140234321
